Experimental data from PMC5893359 (Cancer cell, 2018).

Experiments:
[1] = biological target: epidermal growth factor receptor, endogenous in A431 cell lysate (human (endogenous in A431)) (UniProt P00533); test: ELISA
[2] = biological target: epidermal growth factor receptor, endogenous in A431 cell lysate (human (endogenous in A431), UniProt P00533 25-1210); test: ELISA

A Kd [1] of 217 nM was found for “amphiregulin, recombinant (from UniProt P15514 20-187) (ligand)” in this work.

B1: bovine RNase A (enzyme, UniProt P61823 27-150, looked up)
chain: KETAAAKFERQHMDSSTSAASSSNYCNQMMKSRNLTKDRCKPVNTFVHESLADVQAVCSQKNVACKNGQTNCYQSYSTMSITDCRETGSSKYPNCAYKTTQANKHIIVACEGNPYVPVHFDASV
A Kd [2] of 885 nM was found for B1 in this work.
